This note sets out measurements from US20250388696A1.

Assay [1] concerns the target human serum albumin (human) (UniProt P02768). Put plainly: SPR, HSA immobilised on the chip, pH 7.3, 1:1 Langmuir fit. A general note: SPR reads the build-up and loss of mass on a sensor chip optically.
Assay [2] concerns the target extra domain B of oncofetal human fibronectin (ED-B) (human) (UniProt P02751). Put plainly: SPR, ED-B immobilised on the chip, pH 7.3, 1:1 Langmuir fit.
Assay [3] deals with mouse serum albumin (mouse) (UniProt P07724). Kind of assay: SPR.
Assay [4] deals with human serum albumin (human) (UniProt P02768). Put plainly: SPR.
The target of assay [5] is extra domain B of oncofetal human fibronectin (ED-B) (human) (UniProt P02751). Kind of assay: SPR.
For another assay, the target named is hFAP-Fc (human) (UniProt Q12884). Kind of assay: SPR, Fc-tagged FAP captured on immobilised protein A, pH 7.3, 1:1 Langmuir fit.

Where no end group is shown, it is not given here.

Sequence of extra domain B of oncofetal human fibronectin (ED-B) (human) (P02751 1266-1356 limits assumed): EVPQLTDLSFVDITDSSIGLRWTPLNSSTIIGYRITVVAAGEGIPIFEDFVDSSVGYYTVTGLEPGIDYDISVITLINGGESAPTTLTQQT
Sequence of human serum albumin (human) (P02768 25-609 limits assumed): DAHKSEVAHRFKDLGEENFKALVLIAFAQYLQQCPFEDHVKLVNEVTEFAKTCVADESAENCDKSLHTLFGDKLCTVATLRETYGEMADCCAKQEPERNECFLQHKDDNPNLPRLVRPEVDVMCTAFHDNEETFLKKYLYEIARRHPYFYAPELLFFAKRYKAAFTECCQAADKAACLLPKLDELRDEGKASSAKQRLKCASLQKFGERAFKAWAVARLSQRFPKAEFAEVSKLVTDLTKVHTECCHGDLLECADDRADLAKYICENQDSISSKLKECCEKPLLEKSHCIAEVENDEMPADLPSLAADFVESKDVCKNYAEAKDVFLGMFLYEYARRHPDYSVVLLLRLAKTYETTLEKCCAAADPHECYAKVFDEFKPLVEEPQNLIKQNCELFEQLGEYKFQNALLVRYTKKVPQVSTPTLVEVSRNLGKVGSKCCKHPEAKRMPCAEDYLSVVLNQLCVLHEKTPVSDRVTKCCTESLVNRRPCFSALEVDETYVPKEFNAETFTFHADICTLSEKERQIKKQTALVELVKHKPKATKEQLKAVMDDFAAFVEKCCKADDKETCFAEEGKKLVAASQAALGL
Sequence of hFAP-Fc (human) (Q12884 26-760 limits assumed): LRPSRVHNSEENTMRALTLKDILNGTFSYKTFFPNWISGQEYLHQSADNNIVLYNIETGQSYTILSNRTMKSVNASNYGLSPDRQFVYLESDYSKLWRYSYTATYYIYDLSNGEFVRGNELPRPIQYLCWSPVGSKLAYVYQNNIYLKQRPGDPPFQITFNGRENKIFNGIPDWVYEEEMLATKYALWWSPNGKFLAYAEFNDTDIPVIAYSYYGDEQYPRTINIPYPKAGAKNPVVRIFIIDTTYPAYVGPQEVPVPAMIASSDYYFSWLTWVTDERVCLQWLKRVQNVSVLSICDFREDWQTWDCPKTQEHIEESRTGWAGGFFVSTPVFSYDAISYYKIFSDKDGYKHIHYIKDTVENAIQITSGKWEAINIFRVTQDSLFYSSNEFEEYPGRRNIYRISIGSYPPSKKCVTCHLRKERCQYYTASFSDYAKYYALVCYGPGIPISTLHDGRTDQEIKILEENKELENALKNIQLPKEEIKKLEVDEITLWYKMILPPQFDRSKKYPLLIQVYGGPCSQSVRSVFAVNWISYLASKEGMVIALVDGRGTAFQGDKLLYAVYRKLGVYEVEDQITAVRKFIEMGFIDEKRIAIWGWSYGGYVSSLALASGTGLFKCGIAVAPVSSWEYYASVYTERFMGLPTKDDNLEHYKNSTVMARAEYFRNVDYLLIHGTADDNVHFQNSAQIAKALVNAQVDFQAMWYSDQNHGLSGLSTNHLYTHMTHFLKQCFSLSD
Sequence of mouse serum albumin (mouse) (P07724 25-608 limits assumed): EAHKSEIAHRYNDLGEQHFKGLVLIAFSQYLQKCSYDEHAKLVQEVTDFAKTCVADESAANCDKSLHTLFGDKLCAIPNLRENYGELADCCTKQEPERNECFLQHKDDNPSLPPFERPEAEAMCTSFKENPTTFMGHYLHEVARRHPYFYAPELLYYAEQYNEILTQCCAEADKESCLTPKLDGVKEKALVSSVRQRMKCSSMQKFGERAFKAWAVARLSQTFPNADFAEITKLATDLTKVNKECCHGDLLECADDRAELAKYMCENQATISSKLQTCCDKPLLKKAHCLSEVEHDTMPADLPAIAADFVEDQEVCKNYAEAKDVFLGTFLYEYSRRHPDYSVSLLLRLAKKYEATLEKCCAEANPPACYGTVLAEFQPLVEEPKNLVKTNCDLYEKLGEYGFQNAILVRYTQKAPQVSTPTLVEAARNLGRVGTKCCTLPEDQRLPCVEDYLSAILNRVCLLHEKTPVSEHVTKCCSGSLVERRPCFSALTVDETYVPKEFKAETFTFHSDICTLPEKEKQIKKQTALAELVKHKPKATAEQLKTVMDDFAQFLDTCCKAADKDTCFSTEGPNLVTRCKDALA

B1: 215035 (designed binder, part only; not given: ED-B binding domain, linkers, tags, part only)
fusion protein, part: LAEAKVLAIKELDKAGISDYYFNLINNAKTVEGVKALKAQIVAA
In assay [1], B1 gave a Kd of 2.4 nM.

B2: 215037 (designed binder, part only; not given: ED-B binding domain, linkers, tags, part only)
fusion protein, part: LAEAKVLAIKELDKAGISDYYFNLINNAKTVDGVKALKAQIVAA
B2 had a Kd in assay [1] of 19.9 nM.

B3: 215039 (designed binder, part only; not given: ED-B binding domain, linkers, tags, part only)
fusion protein, part: LAEAKVLAIKELDKAGISDYYFNLINNAKTIEGVKALKAQIVAA
On to B3, for which the Kd in assay [1] amounted to 2.2 nM.

B4: 215055 (designed binder, part only; not given: ED-B binding domain, linkers, tags, part only)
fusion protein, part: LAEAKVLAIKELDKAGISNYYFNLINNAKTIEGVKALKAQIVAA
As for B4, the Kd in assay [1] is 1.7 nM.

B5: 215052 (designed binder, part only; not given: ED-B binding domain, linkers, tags, part only)
fusion protein, part: LAEAKVLAIKELDKAGISNYYFNLINNAKTVEGVKDLKAQIVAA
The molecule B5 returned a Kd in assay [1] of 7.9 nM.

B6: 219089 (designed binder, part only; not given: ED-B binding domain, linkers, tags, part only)
fusion protein, part: LAEAKVLAIKELDKAGISNYYFNLINNAKTVEGVKALKAQIVAA
Turning to B6, the Kd in assay [1] turned out to be 12.5 nM; in assay [2], 0.3 nM.

B7: 215652 (designed binder, part only; not given: ED-B binding domain, linkers, tags, part only)
fusion protein, part: LAEAKVLALKELDKYGISNYYKNLINNAKTIEGVKALKAQIVAA
For B7, the figures for the Kd in assay [1] and in assay [2] were 4.1 nM and 0.4 nM, respectively.

B8: 219087 (designed binder, part only; not given: ED-B binding domain, linkers, tags, part only)
fusion protein, part: LAEAKVLALKELDKYGISNYYKNLINNAKTVEGVKALKEAIVAALP
modifications: also: fusion protein, linkers and tags not given here
As to B8, the Kd in assay [1] amounted to 1.4 nM; in assay [2], 0.2 nM.

B9: ED-B specific fusion protein 219087 DOTA Lu (designed binder, part only; not given: ED-B binding domain, linker, part only)
chain, part: LAEAKVLALKELDKYGISNYYKNLINNAKTVEGVKALKEAIVAALP
modifications: also: DOTA coupled, site not given here, Lu loaded
Regarding B9, the results for the Kd in assay [3], in assay [4] and in assay [5] were 1.3 nM, 1.3 nM and below 1 nM, respectively.

B10: 215680 (designed binder, part only; not given: ED-B binding domain, linkers, tags, part only)
fusion protein, part: LAEAKVLALKELDKYGISNYYKNLIDKAKTIEGVEALKDAILAA
B10: the Kd is 0.8 nM in assay [1] and 0.1 nM in assay [2].

B11: 221191 (designed binder, part only; not given: FAP binding domain, linkers, tags, part only)
fusion protein, part: LAEAKVLALKELDKYGISNYYKNLINNAKTVEGVKALKEAIVAA
In the case of B11, the Kd (with hFAP-Fc (human); in assay [1]) was 3.8 nM in each case.

B12: 215674 (designed binder, part only; not given: ED-B binding domain, linkers, tags, part only)
fusion protein, part: LAEAKVLALKELDKYGISNYYKNLINNAKTIEGVEALKEAIVAA
Turning to B12, the Kd in assay [1] worked out at 5 nM; in assay [2], 0.1 nM.

B13: 215659 (designed binder, part only; not given: ED-B binding domain, linkers, tags, part only)
fusion protein, part: LAEAKVLALKELDKYGISNYYKNLINNAKTIEGVEALKAQIVAA
B13 registered a Kd in assay [1] of 13.4 nM.

B14: 215661 (designed binder, part only; not given: ED-B binding domain, linkers, tags, part only)
fusion protein, part: LAEAKVLALKELDKYGISNYYKNLINNAKTIEGVKALKDQIVAA
With B14, the Kd came out at 3.8 nM in assay [1] and 0.4 nM in assay [2].

B15: 215673 (designed binder, part only; not given: ED-B binding domain, linkers, tags, part only)
fusion protein, part: LAEAKVLALKELDKYGISNYYKNLINNAKTIEGVEALKDAIVAA
As to B15, the Kd is 3.3 nM in assay [1] and 0.1 nM in assay [2].

B16: 217806 (designed binder, part only; not given: ED-B binding domain, linkers, tags, part only)
fusion protein, part: LAEAKVLALKELDKYGISNYYKNLINNAKTVEGVKALKEAIVAA
With B16, the Kd stood at 1.5 nM in assay [1] and 0.1 nM in assay [2].

B17: 215665 (designed binder, part only; not given: ED-B binding domain, linkers, tags, part only)
fusion protein, part: LAEAKVLALKELDKYGISNYYKNLINNAKTIEGVKALKAQILAA
For the molecule B17, the Kd amounted to 3 nM in assay [1] and 0.1 nM in assay [2].

B18: 215675 (designed binder, part only; not given: ED-B binding domain, linkers, tags, part only)
fusion protein, part: LAEAKVLALKELDKYGISNYYKNLINNAKTIEGVEALKDAILAA
In the case of B18, the Kd in assay [1] amounted to 1.1 nM; in assay [2], 0.6 nM.

B19: 215663 (designed binder, part only; not given: ED-B binding domain, linkers, tags, part only)
fusion protein, part: LAEAKVLALKELDKYGISNYYKNLINNAKTIEGVKALKAAIVAA
As for B19, the figures for the Kd in assay [1] and in assay [2] were 2.6 nM and 0.2 nM, respectively.

B20: 215671 (designed binder, part only; not given: ED-B binding domain, linkers, tags, part only)
fusion protein, part: LAEAKVLALKELDKYGISNYYKNLINNAKTIEGVKALKDEIVAA
For B20, the Kd in assay [1] worked out at 7.3 nM; in assay [2] it was 0.1 nM.

B21: 215670 (designed binder, part only; not given: ED-B binding domain, linkers, tags, part only)
fusion protein, part: LAEAKVLALKELDKYGISNYYKNLINNAKTIEGVKALKEAIVAA
As for B21, the Kd in assay [1] was found to be 3.4 nM; in assay [2], 0.7 nM.

B22: 221215 (designed binder, part only; not given: FAP binding domain, linkers, tags, part only)
fusion protein, part: LAEAKVLALKELDKYGISNYYKNLINNAKTIEGVKALKDEIVAA
For the molecule B22, the Kd with hFAP-Fc (human) is 8 nM; in assay [1], 7.9 nM.

One may read the Kd as the equilibrium constant for the complex coming apart. The low end stands for a tighter complex, the high end for a looser complex.
